In patent publication US20220119534A1 (DRAGONFLY THERAPEUTICS, published 2022):
“And” between values parts separate entries of the source, which are not always exact repeats. Equal entries are not always repeated.

Tests used:
[1] = target: T1, Human CLEC12A expressed on cells (Ba/F3-hCLEC12A, PL21, HL60) (human, UniProt Q5QGZ9 1-265); assay: cell-based or functional assay
T1 sequence: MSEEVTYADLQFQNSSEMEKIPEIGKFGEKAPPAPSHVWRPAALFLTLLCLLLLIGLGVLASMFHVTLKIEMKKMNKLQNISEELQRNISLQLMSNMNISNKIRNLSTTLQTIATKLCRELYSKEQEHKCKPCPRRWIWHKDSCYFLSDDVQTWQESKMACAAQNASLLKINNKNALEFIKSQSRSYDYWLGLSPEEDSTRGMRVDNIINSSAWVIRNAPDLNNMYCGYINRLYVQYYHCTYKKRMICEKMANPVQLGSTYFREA

[2] = target: T2, Human CLEC12A-His (recombinant, K244 WT) (human, UniProt Q5QGZ9 65-265); assay: SPR, two-state fit; after 4 wks 40C in HST pH 6.0
T2 construct: Made in house (Dragonfly Tx); also called hCLEC12A; hCLEC12A-His; not shown: His tag
T2 sequence: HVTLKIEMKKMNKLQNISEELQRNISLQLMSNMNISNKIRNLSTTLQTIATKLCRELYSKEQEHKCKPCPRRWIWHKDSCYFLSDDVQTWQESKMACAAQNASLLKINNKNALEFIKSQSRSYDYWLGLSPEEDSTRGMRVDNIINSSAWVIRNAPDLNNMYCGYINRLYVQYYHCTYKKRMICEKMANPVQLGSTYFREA

[3] = target: T2, Human CLEC12A-His (recombinant, K244 WT); assay: SPR, two-state fit (kd1); control sample
Protocol: (§1) Briefly, human Fc specific antibodies were covalently immobilized at a density ˜8000-10000 resonance units (RU) on carboxy methyl dextran matrix of a CM5 biosensor chip via amine-coupling chemistry to create an anti-hFc IgG chip. […] Association was monitored for 300 seconds and dissociation was monitored for 600 seconds. Surfaces were regenerated between cycles with three pulses of 10 mM glycine-HCl, pH 1.7 injected for 20 seconds at 100 μl/min. HBS-EP+ (1×) with 0.1 mg/ml BSA was used as running buffer throughout the experiment. Experiments were performed at physiological temperature of 37° C. To obtain kinetic rate constants and overall binding affinity, double-referenced data were fit to a two-state kinetic model using Biacore 8K Insight Evaluation software (Cytiva).

[4] = target: T1, Human CLEC12A expressed on cells …; assay: cell-based or functional assay; remark: listed apart in the source
[5] = target: T2, Human CLEC12A-His (recombinant, K244 WT); assay: SPR 37C, AB0089 captured on anti-hFc, two-state fit (ka1)
Protocol: as §1

[6] = target: T2, Human CLEC12A-His (recombinant, K244 WT); assay: SPR, two-state fit; control sample
Protocol: as §1

Kd [2]: 1 nM
koff [3]: 0.0476 s⁻¹
Kd [6]: 0.9 nM
B1: AB0089 TriNKET (bispecific antibody, human IgG1, kappa)
chain: QLQLQESGPGLVKPSETLSLTCTVSGFSLTNYGLHWIRQPPGKCLEWIGVIWVGGATDYNPSLKSRVTISVDTSKNQFSLKLSSVQAADTAVYYCAKGDYGDTLDYWGQGTLVTVSSGGGGSGGGGSGGGGSGGGGSDIQMTQSPSSLSASVGDRVTITCHASQNINFWLSWYQQKPGKAPKLLIYEASNLHTGVPSRFSGSGSGTDFTLTISSLQPEDFATYYCQQSHSYPLTFGCGTKLEIKGSDKTHTCPPCPAPELLGGPSVFLFPPKPKDTLMISRTPEVTCVVVDVSHEDPEVKFNWYVDGVEVHNAKTKPREEQYNSTYRVVSVLTVLHQDWLNGKEYKCKVSNKALPAPIEKTISKAKGQPREPRVYTLPPCRDELTKNQVSLTCLVKGFYPSDIAVEWESNGQPENNYKTTPPVLVSDGSFTLYSKLTVDKSRWQQGNVFSCSVMHEALHNHYTQKSLSLSPG
heavy: EVQLVESGGGLVKPGGSLRLSCAASGFTFSSYSMNWVRQAPGKGLEWVSSISSSSSYIYYADSVKGRFTISRDNAKNSLYLQMNSLRAEDTAVYYCARGAPIGAAAGWFDPWGQGTLVTVSSASTKGPSVFPLAPSSKSTSGGTAALGCLVKDYFPEPVTVSWNSGALTSGVHTFPAVLQSSGLYSLSSVVTVPSSSLGTQTYICNVNHKPSNTKVDKKVEPKSCDKTHTCPPCPAPELLGGPSVFLFPPKPKDTLMISRTPEVTCVVVDVSHEDPEVKFNWYVDGVEVHNAKTKPREEQYNSTYRVVSVLTVLHQDWLNGKEYKCKVSNKALPAPIEKTISKAKGQPREPQVCTLPPSRDELTENQVSLTCLVKGFYPSDIAVEWESNGQPENNYKTTPPVLDSDGSFFLYSWLTVDKSRWQQGNVFSCSVMHEALHNHYTQKSLSLSPG
light: DIQMTQSPSSVSASVGDRVTITCRASQGISSWLAWYQQKPGKAPKLLIYAASSLQSGVPSRFSGSGSGTDFTLTISSLQPEDFATYYCQQGVSFPRTFGGGTKVEIKRTVAAPSVFIFPPSDEQLKSGTASVVCLLNNFYPREAKVQWKVDNALQSGNSQESVTEQDSKDSTYSLSSTLTLSKADYEKHKVYACEVTHQGLSSPVTKSFNRGEC
notes: F3' format heterodimer of three chains; human IgG1 Fc with EW-RVT and Y349C/S354C mutations; also called AB0089 Lot AB0089-002; CLEC12A TriNKET AB0089
EC50, KHYG-1-CD16aV mediated cytotoxicity, HL60 cells [1]: 0.27 nM
EC50, KHYG-1-CD16aV mediated cytotoxicity, PL21 cells [1]: 0.16 nM
EC50, KHYG1-CD16aV cytotoxicity assay, HL-60 cells; control (AB0089-002) [4]: 0.04 nM
EC50, KHYG1-CD16aV cytotoxicity assay, HL-60 cells; low pH hold (AB0089-004) [4]: 30 pM
kon [5]: 1.1e+07 M⁻¹ s⁻¹ (2×) and 1e+07 M⁻¹ s⁻¹ (2×)
